Data published in patent publication US20230340151A1 (Pfizer, published 2023).

Columns and labels:
Test in all cases: flow cytometry on cells displaying the construct
[1] = molecular target: T1, CID1880 (human-chicken GUCY2c chimera) (human/chicken)
T1 chain: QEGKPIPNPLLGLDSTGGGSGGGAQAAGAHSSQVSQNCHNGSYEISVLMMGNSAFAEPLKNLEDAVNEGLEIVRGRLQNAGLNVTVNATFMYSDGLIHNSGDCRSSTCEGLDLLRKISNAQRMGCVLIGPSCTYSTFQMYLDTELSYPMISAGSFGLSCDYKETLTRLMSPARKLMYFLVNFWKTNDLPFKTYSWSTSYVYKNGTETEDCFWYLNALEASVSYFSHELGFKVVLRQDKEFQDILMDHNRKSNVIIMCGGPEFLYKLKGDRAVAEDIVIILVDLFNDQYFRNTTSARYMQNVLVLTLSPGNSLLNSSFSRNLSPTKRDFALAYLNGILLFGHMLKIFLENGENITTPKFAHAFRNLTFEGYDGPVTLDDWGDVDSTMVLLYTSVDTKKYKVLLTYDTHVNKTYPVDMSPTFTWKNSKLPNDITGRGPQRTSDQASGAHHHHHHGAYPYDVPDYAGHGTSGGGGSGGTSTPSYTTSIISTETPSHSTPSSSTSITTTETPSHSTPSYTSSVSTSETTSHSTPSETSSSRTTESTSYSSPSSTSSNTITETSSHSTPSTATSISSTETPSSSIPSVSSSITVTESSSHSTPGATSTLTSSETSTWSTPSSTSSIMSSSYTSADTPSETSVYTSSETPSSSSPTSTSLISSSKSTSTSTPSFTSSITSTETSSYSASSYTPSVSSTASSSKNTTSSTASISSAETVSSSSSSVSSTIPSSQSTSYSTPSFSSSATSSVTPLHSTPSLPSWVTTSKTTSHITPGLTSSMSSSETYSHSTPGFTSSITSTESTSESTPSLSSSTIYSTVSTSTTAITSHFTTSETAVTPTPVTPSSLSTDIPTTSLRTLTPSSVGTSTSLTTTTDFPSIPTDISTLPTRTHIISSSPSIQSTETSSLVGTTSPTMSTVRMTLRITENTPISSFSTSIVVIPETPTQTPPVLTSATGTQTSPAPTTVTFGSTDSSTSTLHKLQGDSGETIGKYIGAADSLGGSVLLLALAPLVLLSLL
From the text: (§1) Cells were then washed three times with PBS+0.5% BSA buffer. […] Cells were washed three times with PBS+0.5% BSA buffer and then analyzed on a flow cytometer.
(§2) MFI (median fluorescence intensity) of anti-GUCY2c antibody binding to the cells was normalized to expression on cell surface measured by MFI of anti-tag antibodies. All the cells expressed V5 and HA on the cell surface for expression normalization.

[2] = molecular target: T2, CID1875 (human-chicken GUCY2c chimera) (human/chicken)
T2 chain: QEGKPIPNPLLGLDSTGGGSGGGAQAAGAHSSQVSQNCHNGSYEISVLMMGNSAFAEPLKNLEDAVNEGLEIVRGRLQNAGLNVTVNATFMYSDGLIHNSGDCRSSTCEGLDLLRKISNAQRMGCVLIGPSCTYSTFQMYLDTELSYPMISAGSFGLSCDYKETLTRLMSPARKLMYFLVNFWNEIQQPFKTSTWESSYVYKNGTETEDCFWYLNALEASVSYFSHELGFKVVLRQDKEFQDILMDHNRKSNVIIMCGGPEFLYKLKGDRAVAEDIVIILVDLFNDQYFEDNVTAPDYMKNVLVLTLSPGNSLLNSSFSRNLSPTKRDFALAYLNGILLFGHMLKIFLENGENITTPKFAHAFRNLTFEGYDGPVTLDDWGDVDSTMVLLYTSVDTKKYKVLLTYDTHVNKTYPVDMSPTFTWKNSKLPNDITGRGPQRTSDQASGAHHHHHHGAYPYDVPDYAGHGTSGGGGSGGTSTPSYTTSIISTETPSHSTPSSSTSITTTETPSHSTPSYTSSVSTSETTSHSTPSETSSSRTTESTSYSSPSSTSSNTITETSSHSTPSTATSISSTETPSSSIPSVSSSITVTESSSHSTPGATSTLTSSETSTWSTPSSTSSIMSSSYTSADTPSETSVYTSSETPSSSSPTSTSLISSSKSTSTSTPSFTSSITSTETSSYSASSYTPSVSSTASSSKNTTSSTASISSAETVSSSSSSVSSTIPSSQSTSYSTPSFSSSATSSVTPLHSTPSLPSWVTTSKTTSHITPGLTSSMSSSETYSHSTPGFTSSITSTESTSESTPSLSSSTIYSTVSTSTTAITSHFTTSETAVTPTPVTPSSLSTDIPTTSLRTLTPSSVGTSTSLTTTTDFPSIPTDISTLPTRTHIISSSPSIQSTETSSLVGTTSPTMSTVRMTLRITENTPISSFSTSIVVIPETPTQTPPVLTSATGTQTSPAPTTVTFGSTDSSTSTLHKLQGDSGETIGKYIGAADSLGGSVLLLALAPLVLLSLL
From the text: as §1, §2

[3] = molecular target: T3, CID1877 (human-chicken GUCY2c chimera) (human/chicken)
T3 chain: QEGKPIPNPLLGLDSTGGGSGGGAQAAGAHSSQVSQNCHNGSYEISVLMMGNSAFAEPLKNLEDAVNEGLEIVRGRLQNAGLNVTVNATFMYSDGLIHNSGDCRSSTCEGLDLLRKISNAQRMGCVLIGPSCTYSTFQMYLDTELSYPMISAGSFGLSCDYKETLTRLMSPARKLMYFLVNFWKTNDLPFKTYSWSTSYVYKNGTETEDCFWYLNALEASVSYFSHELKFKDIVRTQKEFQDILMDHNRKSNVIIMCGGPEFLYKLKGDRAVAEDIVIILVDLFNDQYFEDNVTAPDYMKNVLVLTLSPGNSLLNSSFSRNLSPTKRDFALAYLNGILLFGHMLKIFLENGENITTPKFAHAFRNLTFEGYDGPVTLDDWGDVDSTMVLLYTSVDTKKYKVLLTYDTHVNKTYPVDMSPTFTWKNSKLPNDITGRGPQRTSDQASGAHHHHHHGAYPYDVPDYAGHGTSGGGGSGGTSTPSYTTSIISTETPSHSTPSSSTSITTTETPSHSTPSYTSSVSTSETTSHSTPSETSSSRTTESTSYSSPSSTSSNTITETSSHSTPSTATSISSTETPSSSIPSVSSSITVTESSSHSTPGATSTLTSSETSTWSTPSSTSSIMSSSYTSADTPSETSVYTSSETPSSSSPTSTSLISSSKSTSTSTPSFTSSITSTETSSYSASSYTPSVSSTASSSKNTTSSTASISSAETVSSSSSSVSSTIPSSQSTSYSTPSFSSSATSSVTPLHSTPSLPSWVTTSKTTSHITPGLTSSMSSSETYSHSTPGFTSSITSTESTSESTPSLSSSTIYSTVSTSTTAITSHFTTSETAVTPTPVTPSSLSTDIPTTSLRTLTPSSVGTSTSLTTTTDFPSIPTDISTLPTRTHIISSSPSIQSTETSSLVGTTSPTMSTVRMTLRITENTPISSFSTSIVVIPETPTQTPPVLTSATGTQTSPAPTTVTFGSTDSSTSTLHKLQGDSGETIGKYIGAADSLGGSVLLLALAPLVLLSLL
From the text: as §1, §2

[4] = molecular target: CID1946 (human GUCY2c point mutant) (human)
From the text: as §1, §2

Measured: binding result

B1: GUCY2C-1608 (bispecific antibody)
chain 1: DIQLTQSPSSLSASVGDRVTITCRASESVDYYGSSLLQWYQQKPGKAPKLLIYAASKLASGVPSRFSGSGSGTDFTLTISSLQPEDFATYYCQQTRKAYTFGQGTKLEIKGGGSGGGGEVQLVESGGGLVQPGGSLRLSCAASGFTFSDYYMTWVRQAPGKGLEWVAFIRNQARGYTSDHNPSVKGRFTISRDNAKNSLYLQMNSLRAEDTAVYYCARDRPSYYVLDYWGQGTTVTVSSGCPPCPAPEAAGAPSVFLFPPKPKDTLMISRTPEVTCVVVDVSHEDPEVKFNWYVDGVEVHNAKTKPREEQYNSTYRVVSVLTVLHQDWLNGKEYKCKVSNKALPAPIEKTISKAKGQPREPQVCTLPPSREEMTKNQVSLWCLVKGFYPSDIAVEWESNGQPENNYKTTPPVLDSDGSFFLYSKLTVDKSRWQQGNVFSCSVMHEALHNHYTQKSLSLSPG
chain 2: DIQMTQSPSSLSASVGDRVTITCTSSQSLFNVRSQKNYLAWYQQKPGKAPKLLIYWASTRESGVPSRFSGSGSGTDFTLTISSLQPEDFATYYCKQSYDLFTFGGGTKVEIKGGGGSGGGGEVQLVESGGGLVQPGGSLRLSCAASGFTFSSYWMHWVRQAPGKGLEWIGEIKPSNELTNVHEKFKDRFTISVDKAKNSAYLQMNSLRAEDTAVYYCTRTITTTEGYWFFDVWGQGTLVTVSSGCPPCPAPEAAGAPSVFLFPPKPKDTLMISRTPEVTCVVVDVSHEDPEVKFNWYVDGVEVHNAKTKPREEQYNSTYRVVSVLTVLHQDWLNGKEYKCKVSNKALPAPIEKTISKAKGQPREPQVYTLPPCREEMTKNQVSLSCAVKGFYPSDIAVEWESNGQPENNYKTTPPVLDSDGSFFLVSKLTVDKSRWQQGNVFSCSVMHEALHNHYTQKSLSLSPG
notes: also called GUCY2c CD3 bispecific
binds: all assays above
